Data reported in patent US20040049024A1, “Compositions and methods related to the minn1 tumor suppressor gene and protein” (priority 2003, published 2004).
Peptide text beside a SMILES is read from it. * marks the point of attachment. Cbz = O=C(OCc1ccccc1)*; CH2F = FC*

Tests used:
[1] = system: 293-T cells; assay: Cell death after Minn1 or Fas transfection, with or without caspase inhibitor; type: cell-based, human; details: 30 μM, added immediately after transfection; DMSO carrier
Procedure: Fas is a well-characterized inducer of apoptosis (Nagata, Annu. Rev. Genet., 33:29-55 [1999]).
Apoptosis requires the activation of caspase proteases (Stennicke and Salvesen, Biochim. Biophys. Acta 1477:299-306 [2000]). In order to confirm that the cell death observed in the Minn1 and […] transfected cells was apoptotic cell death, the transfection experiments were repeated in the presence of the caspase inhibitor, z-VAD-fink (Calbiochem). The drug was added to the cells to a final concentration of 30 μM immediately after transfection and was maintained during subsequent medium changes. DMSO was used as the drug carrier, and was also included in transfections that contained no drug in order to normalize transfection conditions.

[2] = biological target: T1, H-Ras (Homo sapiens, UniProt P01112); assay: In vitro Ras/Minn1 binding and co-precipitation assay
T1 construct: made in house; XL1-Blue Escherichia coli for the MBP fusions
Text: The ability of Ras and Minn1 to interact in vitro was examined. These experiments used in vitro produced and purified maltose binding protein (MBP) fusion proteins containing the Minn1 Ras-Association (RA) domain or the Raf Ras-Binding-Domain (RBD), and purified Ras protein in a standard protein binding and co-precipitation assay.
Ras protein was produced by inducing an H-Ras bacterial expression construct in bacteria followed by differential denaturation and dialysis, as known in the art (See e.g., Campbell-Burk and Carpenter, Methods Enzymol., 255:3-13 [1995]). […] Purity and concentrations of the recombinant proteins were assessed by denaturing polyacrylamide gel electrophoresis (SDS-PAGE) followed by Coomassie Blue staining and comparison to known standards.
After this time, the binding reactions were centrifuged and washed. Following the washing steps, the binding reactions were loaded and resolved using PAGE, blotted to a polyvinylidene difluoride (PVDF) membrane, and analyzed by Western immunoblotting using an anti-H-Ras monoclonal primary antibody (Quality Biotech, #146). Detection was accomplished using an alkaline phosphatase conjugated secondary antibody and ECL chemiluminescence reagent (Amersham). […]
The proteins resolved in the PAGE were analyzed by Western immunoblotting using an anti-H-Ras monoclonal antibody (Viro Med). […]

[3] = biological target: T2, HA-H-Ras(G12V) fusion protein (UniProt P01112 1-186); assay: co-transfection in 293-T cells, anti-HA immunoprecipitation, anti-FLAG Western blot
T2 construct: Expressed in 293-T cells; precipitated with anti-HA beads; also called pCGNHA-H-Ras(G12V)
Procedure: (§1) After 48 hours, the cells were lysed, immunoprecipitated using anti-HA antibody-conjugated sepharose beads (BAbCO), washed and analyzed by Western immunoblotting using an anti-FLAG monoclonal antibody (M2 antibody, SIGMA) and an alkaline phosphatase conjugated secondary antibody with an ECL detection kit (Amersham).
(§2) After 48 hours, the cells were lysed in EDTA-free RIPA buffer (described in Clark et al., J. Biol. Chem., 272:20990-20993 [1997]), immunoprecipitated with anti-HA antibody-conjugated sepharose beads (BAbCO), washed and subjected to Western immunoblotting using an anti-FLAG monoclonal primary antibody (M2 antibody, Sigma) and an alkaline phosphatase conjugated secondary antibody with an ECL chemiluminescence kit (Amersham).

[4] = biological target: T3, HA-H-Ras(WT) fusion protein (UniProt P01112 1-186); assay: as above
T3 construct: Expressed in 293-T cells; precipitated with anti-HA beads; also called wild-type HA-H-Ras
Procedure: as §1, §2

[5] = system: H-Ras; assay: In vivo Ras/Minn1 binding assay (co-transfection/co-precipitation in 293-T cells); type: cell-based, human; details: HA-H-Ras(WT) versus HA-H-Ras(G12V), 48 hours after co-transfection
Text: To confirm and complement the results observed in the in vitro binding assay, an in vivo binding assay was undertaken using recombinant FLAG-tagged Minn1 protein and hemagglutinin (HA)-tagged Ras proteins. These experiments used a standard co-transfection/co-precipitation protocol common in the art, using 293-T cells, a transformed human embryonal kidney cell line.
Expression vectors encoding two different forms of HA-tagged Ras protein were used in this assay, namely, a wild-type HA-H-Ras fusion protein and an HA-H-Ras containing a gain-of-function (G12V) mutation. This mutation is known to be oncogenic, and results in elevated Ras signalling activity (Clark and Der, in GTPases in Biology [eds. Dickey and Birmbauer], Springer-Verlag London Ltd., pp. 259-287 [1993]). […] Thus, this mutant form of Ras is considered to be locked in an active conformation.
The in vivo binding assay was conducted by co-transfecting mammalian expression vectors encoding HA-H-Ras(WT) or HA-H-Ras(G12V) with an expression vector encoding FLAG-Minn1 into 293-T cells. After 48 hours, the cells were lysed, immunoprecipitated using anti-HA antibody-conjugated sepharose beads (BAbCO), washed and analyzed by Western immunoblotting using an anti-FLAG monoclonal antibody (M2 antibody, SIGMA) and an alkaline phosphatase conjugated secondary antibody with an ECL detection kit (Amersham). […]

COC(=O)C[C@H](NC(=O)[C@H](C)NC(=O)[C@@H](NC(=O)OCc1ccccc1)C(C)C)C(=O)CF [z-VAD-fmk] (Cbz-Val-Ala-Asp(OMe)-CH2F)
Effect on Fas-induced cell death [1]: severely reduced | Effect on Minn1-induced cell death [1]: severely reduced

B1: MBP-Minn1: maltose binding protein fusion protein containing the Minn1 Ras-Association (RA) domain, amino acid positions 59-270 (protein)
chain: DLFQAEIEQKIKEYNAQINSNLFMSLNKDGSYTGFIKVQLKLVRPVSVPSSKKPPSLQDARRGPGRGTSVRRRTSFYLPKDAVKHLHVLSRTRAREVIEALLRKFLVVDDPRKFALFERAERHGQVYLRKLLDDEQPLRLRLLAGPSDKALSFVLKENDSGEVNWDAFSMPELHNFLRILQREEEEHLRQILQKYSYCRQKIQEALHACPLG
modifications: left off: large carriers
GTP dependence of the interaction with Ras ([2]; GTP-loaded versus GDP-loaded H-Ras): GTP-dependent | Co-precipitation of Ras protein (physical interaction with Ras) ([2]; purified H-Ras preloaded with GTP or GDP, 4° C. for 2 hours, Western immunoblot with anti-H-Ras antibody): co-precipitated

B2: FLAG-tagged Minn1 protein (other, not shown: small tags and cut ends)
chain: MGEAEAPSFEMTWSSTTSSGYCSQEDSDSELEQYFTARTSLARRPRRDQDEPVEWETPDLFQAEIEQKIKEYNAQINSNLFMSLNKDGSYTGFIKVQLKLVRPVSVPSSKKPPSLQDARRGPGRGTSVRRRTSFYLPKDAVKHLHVLSRTRAREVIEALLRKFLVVDDPRKFALFERAERHGQVYLRKLLDDEQPLRLRLLAGPSDKALSFVLKENDSGEVNWDAFSMPELHNFLRILQREEEEHLRQILQKYSYCRQKIQEALHACPLG
notes: also called FLAG-Minn1
binding result [3]: binds | binding result [4]: binds

B3: FLAG-tagged Minn1: Minn1 protein with amino terminal FLAG epitope tag, expressed from pCDNAFLAG-Minn1 in 293-T cells (protein)
chain: B2 chain
modifications: left off: small tags and cut ends
Association with HA-tagged Ras proteins (anti-HA immunoprecipitation, anti-FLAG Western) [5]: preferentially associated with the activated HA-Ras(G12V) protein
